This experiment concerns the target バキュロウイルスを用いて作製したFlagタグ融合インフルエンザウィルスH1N1由来のリコンビナントヌクレオプロテイン(NP)タンパク質 (influenza A virus H1N1).

B1: 配列番号:08により表されるアミノ酸配列からなるVHH抗体 (VHH)
VHH: QVQLVESGGGLVQAGGSLRLSCAASRTIFNPNVMGWYRQAPGKQRELVADISLSGSTNYADSVKGRFTISRDNAKNTMYLQMNSLKPEDTAVYYCNTNAISGAPGRYWGQGTQVTVSS
Turning to B1, the equilibrium dissociation constant (Kd) came to 0.236 nM.

In general, Kd refers to the constant that tells how readily two partners part at equilibrium. High values mean lower affinity, low ones higher affinity.

Values taken from patent JP2018058812A.
